B1: FM9-1 + Fc_hole long-acting GDF15 fusion protein (dimer) (Fc fusion)
chain 1: APEAAGGPSVFLFPPKPKDTLMISRTPEVTCVVVDVSHEDPEVKFNWYVDGVEVHNAKTKPREEQYASTYRVVSVLTVLHQDWLNGKEYKCKVSNKALPAPIEKTISKAKGQPREPQVYTLPPSREEMTKNQVSLWCLVKGFYPSDIAVEWESNGQPENNYKTTPPVLDSDGSFFLYSKLTVDKSRWQQGNVFSCSVMHEALHNHYTQKSLSLSPGKGSGGGGSGGGGSGGGGSNGDHCPLGPGRCCRLHTVRASLEDLGWADWVLSPREVQVTMCIGACPSQFRAANMHAQIKTRLHRLKPDTVPAPCCVPASYNPMVLIQKTDTGVSLQTYDDLLAKDCHCI
chain 2: APEAAGGPSVFLFPPKPKDTLMISRTPEVTCVVVDVSHEDPEVKFNWYVDGVEVHNAKTKPREEQYASTYRVVSVLTVLHQDWLNGKEYKCKVSNKALPAPIEKTISKAKGQPREPQVYTLPPSREEMTKNQVSLSCAVKGFYPSDIAVEWESNGQPENNYKTTPPVLDSDGSFFLVSKLTVDKSRWQQGNVFSCSVMHEALHNHYTQKSLSLSPGK
B2: FM11-5 + Fc_hole long-acting GDF15 fusion protein (dimer) (Fc fusion)
chain 1: APEAAGGPSVFLFPPKPKDTLMISRTPEVTCVVVDVSHEDPEVKFNWYVDGVEVHNAKTKPREEQYASTYRVVSVLTVLHQDWLNGKEYKCKVSNKALPAPIEKTISKAKGQPREPQVYTLPPSREEMTKNQVSLWCLVKGFYPSDIAVEWESNGQPENNYKTTPPVLDSDGSFFLYSKLTVDKSRWQQGNVFSCSVMHEALHNHYTQKSLSLSPGKGSGGSSPTPTPTPTPTPTPTPTPTPTNSTCPLGPGRCCRLHTVRASLEDLGWADWVLSPREVQVTMCIGACPSQFRAANMHAQIKTRLHRLKPDTVPAPCCVPASYNPMVLIQKTDTGVSLQTYDDLLAKDCHCI
chain 2: APEAAGGPSVFLFPPKPKDTLMISRTPEVTCVVVDVSHEDPEVKFNWYVDGVEVHNAKTKPREEQYASTYRVVSVLTVLHQDWLNGKEYKCKVSNKALPAPIEKTISKAKGQPREPQVYTLPPSREEMTKNQVSLSCAVKGFYPSDIAVEWESNGQPENNYKTTPPVLDSDGSFFLVSKLTVDKSRWQQGNVFSCSVMHEALHNHYTQKSLSLSPGK
B3: FM11-3 + Fc_hole long-acting GDF15 fusion protein (dimer) (Fc fusion)
chain 1: APEAAGGPSVFLFPPKPKDTLMISRTPEVTCVVVDVSHEDPEVKFNWYVDGVEVHNAKTKPREEQYASTYRVVSVLTVLHQDWLNGKEYKCKVSNKALPAPIEKTISKAKGQPREPQVYTLPPSREEMTKNQVSLWCLVKGFYPSDIAVEWESNGQPENNYKTTPPVLDSDGSFFLYSKLTVDKSRWQQGNVFSCSVMHEALHNHYTQKSLSLSPGKGSGGGGSGGGGSGGGGSGGGGSGGGGSGGGGSGGGGSNSTCPLGPGRCCRLHTVRASLEDLGWADWVLSPREVQVTMCIGACPSQFRAANMHAQIKTRLHRLKPDTVPAPCCVPASYNPMVLIQKTDTGVSLQTYDDLLAKDCHCI
chain 2: APEAAGGPSVFLFPPKPKDTLMISRTPEVTCVVVDVSHEDPEVKFNWYVDGVEVHNAKTKPREEQYASTYRVVSVLTVLHQDWLNGKEYKCKVSNKALPAPIEKTISKAKGQPREPQVYTLPPSREEMTKNQVSLSCAVKGFYPSDIAVEWESNGQPENNYKTTPPVLDSDGSFFLVSKLTVDKSRWQQGNVFSCSVMHEALHNHYTQKSLSLSPGK
B4: FM11-4 + Fc_hole long-acting GDF15 fusion protein (dimer) (Fc fusion)
chain 1: APEAAGGPSVFLFPPKPKDTLMISRTPEVTCVVVDVSHEDPEVKFNWYVDGVEVHNAKTKPREEQYASTYRVVSVLTVLHQDWLNGKEYKCKVSNKALPAPIEKTISKAKGQPREPQVYTLPPSREEMTKNQVSLWCLVKGFYPSDIAVEWESNGQPENNYKTTPPVLDSDGSFFLYSKLTVDKSRWQQGNVFSCSVMHEALHNHYTQKSLSLSPGKGSEEEAEEEAEEEAEEEAEEEAEEEANSTCPLGPGRCCRLHTVRASLEDLGWADWVLSPREVQVTMCIGACPSQFRAANMHAQIKTRLHRLKPDTVPAPCCVPASYNPMVLIQKTDTGVSLQTYDDLLAKDCHCI
chain 2: APEAAGGPSVFLFPPKPKDTLMISRTPEVTCVVVDVSHEDPEVKFNWYVDGVEVHNAKTKPREEQYASTYRVVSVLTVLHQDWLNGKEYKCKVSNKALPAPIEKTISKAKGQPREPQVYTLPPSREEMTKNQVSLSCAVKGFYPSDIAVEWESNGQPENNYKTTPPVLDSDGSFFLVSKLTVDKSRWQQGNVFSCSVMHEALHNHYTQKSLSLSPGK
B5: FM11-2 + Fc_hole long-acting GDF15 fusion protein (dimer) (Fc fusion)
chain 1: APEAAGGPSVFLFPPKPKDTLMISRTPEVTCVVVDVSHEDPEVKFNWYVDGVEVHNAKTKPREEQYASTYRVVSVLTVLHQDWLNGKEYKCKVSNKALPAPIEKTISKAKGQPREPQVYTLPPSREEMTKNQVSLWCLVKGFYPSDIAVEWESNGQPENNYKTTPPVLDSDGSFFLYSKLTVDKSRWQQGNVFSCSVMHEALHNHYTQKSLSLSPGKGSGGGGSGGGGSGGGGSGGGGSGGGGSNSTCPLGPGRCCRLHTVRASLEDLGWADWVLSPREVQVTMCIGACPSQFRAANMHAQIKTRLHRLKPDTVPAPCCVPASYNPMVLIQKTDTGVSLQTYDDLLAKDCHCI
chain 2: APEAAGGPSVFLFPPKPKDTLMISRTPEVTCVVVDVSHEDPEVKFNWYVDGVEVHNAKTKPREEQYASTYRVVSVLTVLHQDWLNGKEYKCKVSNKALPAPIEKTISKAKGQPREPQVYTLPPSREEMTKNQVSLSCAVKGFYPSDIAVEWESNGQPENNYKTTPPVLDSDGSFFLVSKLTVDKSRWQQGNVFSCSVMHEALHNHYTQKSLSLSPGK
B6: FM9-5 + Fc_hole long-acting GDF15 fusion protein (dimer) (Fc fusion)
chain 1: APEAAGGPSVFLFPPKPKDTLMISRTPEVTCVVVDVSHEDPEVKFNWYVDGVEVHNAKTKPREEQYASTYRVVSVLTVLHQDWLNGKEYKCKVSNKALPAPIEKTISKAKGQPREPQVYTLPPSREEMTKNQVSLWCLVKGFYPSDIAVEWESNGQPENNYKTTPPVLDSDGSFFLYSKLTVDKSRWQQGNVFSCSVMHEALHNHYTQKSLSLSPGKGSGGSSPTPTPTPTPTPTPTPTPTPTNGDHCPLGPGRCCRLHTVRASLEDLGWADWVLSPREVQVTMCIGACPSQFRAANMHAQIKTRLHRLKPDTVPAPCCVPASYNPMVLIQKTDTGVSLQTYDDLLAKDCHCI
chain 2: APEAAGGPSVFLFPPKPKDTLMISRTPEVTCVVVDVSHEDPEVKFNWYVDGVEVHNAKTKPREEQYASTYRVVSVLTVLHQDWLNGKEYKCKVSNKALPAPIEKTISKAKGQPREPQVYTLPPSREEMTKNQVSLSCAVKGFYPSDIAVEWESNGQPENNYKTTPPVLDSDGSFFLVSKLTVDKSRWQQGNVFSCSVMHEALHNHYTQKSLSLSPGK
B7: FM9-6 + Fc_hole long-acting GDF15 fusion protein (dimer) (Fc fusion)
chain 1: APEAAGGPSVFLFPPKPKDTLMISRTPEVTCVVVDVSHEDPEVKFNWYVDGVEVHNAKTKPREEQYASTYRVVSVLTVLHQDWLNGKEYKCKVSNKALPAPIEKTISKAKGQPREPQVYTLPPSREEMTKNQVSLWCLVKGFYPSDIAVEWESNGQPENNYKTTPPVLDSDGSFFLYSKLTVDKSRWQQGNVFSCSVMHEALHNHYTQKSLSLSPGKGSEAAAKEAAAKEAAAKEAAAKEAAAKNGDHCPLGPGRCCRLHTVRASLEDLGWADWVLSPREVQVTMCIGACPSQFRAANMHAQIKTRLHRLKPDTVPAPCCVPASYNPMVLIQKTDTGVSLQTYDDLLAKDCHCI
chain 2: APEAAGGPSVFLFPPKPKDTLMISRTPEVTCVVVDVSHEDPEVKFNWYVDGVEVHNAKTKPREEQYASTYRVVSVLTVLHQDWLNGKEYKCKVSNKALPAPIEKTISKAKGQPREPQVYTLPPSREEMTKNQVSLSCAVKGFYPSDIAVEWESNGQPENNYKTTPPVLDSDGSFFLVSKLTVDKSRWQQGNVFSCSVMHEALHNHYTQKSLSLSPGK
B8: FM11-6 + Fc_hole long-acting GDF15 fusion protein (dimer) (Fc fusion)
chain 1: APEAAGGPSVFLFPPKPKDTLMISRTPEVTCVVVDVSHEDPEVKFNWYVDGVEVHNAKTKPREEQYASTYRVVSVLTVLHQDWLNGKEYKCKVSNKALPAPIEKTISKAKGQPREPQVYTLPPSREEMTKNQVSLWCLVKGFYPSDIAVEWESNGQPENNYKTTPPVLDSDGSFFLYSKLTVDKSRWQQGNVFSCSVMHEALHNHYTQKSLSLSPGKGSEAAAKEAAAKEAAAKEAAAKEAAAKNSTCPLGPGRCCRLHTVRASLEDLGWADWVLSPREVQVTMCIGACPSQFRAANMHAQIKTRLHRLKPDTVPAPCCVPASYNPMVLIQKTDTGVSLQTYDDLLAKDCHCI
chain 2: APEAAGGPSVFLFPPKPKDTLMISRTPEVTCVVVDVSHEDPEVKFNWYVDGVEVHNAKTKPREEQYASTYRVVSVLTVLHQDWLNGKEYKCKVSNKALPAPIEKTISKAKGQPREPQVYTLPPSREEMTKNQVSLSCAVKGFYPSDIAVEWESNGQPENNYKTTPPVLDSDGSFFLVSKLTVDKSRWQQGNVFSCSVMHEALHNHYTQKSLSLSPGK
B9: FM11-1 + Fc_hole long-acting GDF15 fusion protein (dimer) (Fc fusion)
chain 1: APEAAGGPSVFLFPPKPKDTLMISRTPEVTCVVVDVSHEDPEVKFNWYVDGVEVHNAKTKPREEQYASTYRVVSVLTVLHQDWLNGKEYKCKVSNKALPAPIEKTISKAKGQPREPQVYTLPPSREEMTKNQVSLWCLVKGFYPSDIAVEWESNGQPENNYKTTPPVLDSDGSFFLYSKLTVDKSRWQQGNVFSCSVMHEALHNHYTQKSLSLSPGKGSGGGGSGGGGSGGGGSNSTCPLGPGRCCRLHTVRASLEDLGWADWVLSPREVQVTMCIGACPSQFRAANMHAQIKTRLHRLKPDTVPAPCCVPASYNPMVLIQKTDTGVSLQTYDDLLAKDCHCI
chain 2: APEAAGGPSVFLFPPKPKDTLMISRTPEVTCVVVDVSHEDPEVKFNWYVDGVEVHNAKTKPREEQYASTYRVVSVLTVLHQDWLNGKEYKCKVSNKALPAPIEKTISKAKGQPREPQVYTLPPSREEMTKNQVSLSCAVKGFYPSDIAVEWESNGQPENNYKTTPPVLDSDGSFFLVSKLTVDKSRWQQGNVFSCSVMHEALHNHYTQKSLSLSPGK

Target: GFRAL/RET overexpressed on HEK293 cells (GFRAL/RET/SRE-luc-overexpressing HEK293 cell line) (UniProt Q6UXV0 19-394; P07949 29-1114, limits assumed)
Sequence (Q6UXV0 19-394 limits assumed, chain 1 of 2): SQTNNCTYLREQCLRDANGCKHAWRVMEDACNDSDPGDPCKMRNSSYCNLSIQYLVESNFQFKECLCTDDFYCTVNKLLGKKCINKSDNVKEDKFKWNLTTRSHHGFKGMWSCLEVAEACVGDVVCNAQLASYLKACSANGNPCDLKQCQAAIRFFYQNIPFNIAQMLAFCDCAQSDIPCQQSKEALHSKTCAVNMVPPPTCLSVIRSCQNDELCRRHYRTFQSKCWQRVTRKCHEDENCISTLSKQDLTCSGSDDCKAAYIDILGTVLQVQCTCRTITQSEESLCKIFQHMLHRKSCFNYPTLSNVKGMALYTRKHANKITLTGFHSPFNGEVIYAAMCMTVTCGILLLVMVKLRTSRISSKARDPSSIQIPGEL
Sequence (P07949 29-1114 limits assumed, chain 2 of 2): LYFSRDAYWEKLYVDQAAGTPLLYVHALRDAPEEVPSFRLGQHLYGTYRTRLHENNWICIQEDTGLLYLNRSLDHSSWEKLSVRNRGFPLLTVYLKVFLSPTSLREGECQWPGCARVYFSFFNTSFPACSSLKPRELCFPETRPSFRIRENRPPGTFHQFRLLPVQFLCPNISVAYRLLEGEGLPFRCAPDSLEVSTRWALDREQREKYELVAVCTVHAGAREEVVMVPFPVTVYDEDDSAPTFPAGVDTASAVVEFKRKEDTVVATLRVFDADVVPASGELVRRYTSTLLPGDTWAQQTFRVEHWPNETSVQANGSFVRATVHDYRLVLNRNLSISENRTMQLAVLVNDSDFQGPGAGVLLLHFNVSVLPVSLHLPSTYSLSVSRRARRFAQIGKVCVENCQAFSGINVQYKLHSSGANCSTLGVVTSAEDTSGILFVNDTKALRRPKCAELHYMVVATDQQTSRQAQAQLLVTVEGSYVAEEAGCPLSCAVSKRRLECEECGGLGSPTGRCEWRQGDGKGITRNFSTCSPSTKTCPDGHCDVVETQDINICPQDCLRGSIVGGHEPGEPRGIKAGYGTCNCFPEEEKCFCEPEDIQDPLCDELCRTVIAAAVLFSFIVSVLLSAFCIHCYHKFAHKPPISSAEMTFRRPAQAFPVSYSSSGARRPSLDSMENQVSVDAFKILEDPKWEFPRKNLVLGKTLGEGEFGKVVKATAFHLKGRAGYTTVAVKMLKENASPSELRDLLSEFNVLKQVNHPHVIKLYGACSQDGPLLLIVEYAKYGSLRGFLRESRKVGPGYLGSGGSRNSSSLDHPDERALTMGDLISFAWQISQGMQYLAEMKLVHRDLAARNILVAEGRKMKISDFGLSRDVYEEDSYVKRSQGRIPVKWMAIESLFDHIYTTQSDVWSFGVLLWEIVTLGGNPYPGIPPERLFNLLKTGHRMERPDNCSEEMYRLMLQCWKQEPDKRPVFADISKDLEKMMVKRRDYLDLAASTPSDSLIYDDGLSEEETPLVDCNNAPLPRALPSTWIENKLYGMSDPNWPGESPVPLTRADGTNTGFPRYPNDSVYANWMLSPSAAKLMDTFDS
Test: cell-based or functional assay

Row | Binder | EC50 (nM), SRE-luciferase reporter (RLU) [nM] | Emax (%), SRE-luciferase reporter (RLU), relative to FM9-6+Fc_hole [%]
1 | B1 | 9 | 97.6
2 | B2 | 5.1 | 68.2
3 | B3 | 7.8 | 81
4 | B4 | 45.4 | 105
5 | B5 | 7.7 | 79.4
6 | B6 | 5.3 | 100
7 | B7 | 6.3 | –
8 | B8 | 6.8 | 80.3
9 | B9 | 9.7 | 65.6
